Source: patent publication US20210403593A1 (TIZONA THERAPEUTICS, published 2021)
Changes are numbered by the printed parent chain. Values belong to the binder of their own block, whether it stands above or below them.

How the values were obtained:
Chimera #10 = target: T1, Chimera #10 (Homo sapiens (Human), UniProt P49961 1-510); assay: FACS on CHO cells; Chimera 2 with human E153 ([..])
T1 construct: Expressed on CHO cells
T1 chain: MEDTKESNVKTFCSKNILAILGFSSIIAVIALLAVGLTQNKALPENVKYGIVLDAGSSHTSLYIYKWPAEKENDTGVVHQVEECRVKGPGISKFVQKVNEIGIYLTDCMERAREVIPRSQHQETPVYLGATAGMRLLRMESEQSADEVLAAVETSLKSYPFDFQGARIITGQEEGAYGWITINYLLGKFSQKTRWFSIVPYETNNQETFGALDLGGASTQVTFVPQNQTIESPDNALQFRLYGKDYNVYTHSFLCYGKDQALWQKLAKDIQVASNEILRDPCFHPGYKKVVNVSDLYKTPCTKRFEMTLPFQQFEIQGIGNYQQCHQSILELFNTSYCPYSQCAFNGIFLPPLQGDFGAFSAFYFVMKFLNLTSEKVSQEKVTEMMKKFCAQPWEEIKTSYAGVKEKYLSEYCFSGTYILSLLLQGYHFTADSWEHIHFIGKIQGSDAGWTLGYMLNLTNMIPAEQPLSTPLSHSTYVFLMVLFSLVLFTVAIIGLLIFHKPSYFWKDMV

Chimera #2 = target: T2, Chimera #2 (human, UniProt P49961 1-510); assay: FACS on CHO cells; human M1-E142 + mouse Q143-S158 ([..]) + human Y159-V510
T2 construct: Expressed on CHO cells; also called human-mouse Chimera #2
T2 chain: T1 chain with E153S

[1] = target: T3, cynomolgus macaque (Macaca fascicularis) CD39 (Macaca fascicularis, UniProt P49961 7-510 (human entry)); assay: flow cytometry, 100 nM IgG, MFI on CHO-cCD39 / MFI on parental CHO;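 also: antibodies bound to the cells for 30 min in PBS, then bound IgG was revealed with a fluorescent goat anti-human IgG secondary antibody, 20 min on ice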
T3 construct: On engineered CHO cells and on primary cyno B cells and monocytes; also called cyno CD39; cCD39
T3 chain: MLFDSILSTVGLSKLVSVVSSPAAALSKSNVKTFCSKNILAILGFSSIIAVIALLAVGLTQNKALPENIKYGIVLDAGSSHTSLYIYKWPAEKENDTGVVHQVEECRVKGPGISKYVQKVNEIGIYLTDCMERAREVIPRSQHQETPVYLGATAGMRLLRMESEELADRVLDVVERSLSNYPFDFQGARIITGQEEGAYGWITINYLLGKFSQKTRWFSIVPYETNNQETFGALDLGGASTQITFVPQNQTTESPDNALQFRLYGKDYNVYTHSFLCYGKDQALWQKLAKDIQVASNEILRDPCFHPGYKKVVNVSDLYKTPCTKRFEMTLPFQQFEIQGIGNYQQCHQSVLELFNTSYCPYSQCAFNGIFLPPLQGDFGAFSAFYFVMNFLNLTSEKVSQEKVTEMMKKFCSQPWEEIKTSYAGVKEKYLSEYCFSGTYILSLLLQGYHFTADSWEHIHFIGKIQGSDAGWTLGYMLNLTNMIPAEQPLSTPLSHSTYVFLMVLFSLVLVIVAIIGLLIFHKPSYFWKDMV

binding result (Chimera #10): no binding (tested: 15 ug/ml)
binding result (Chimera #2): no binding (tested: 15 ug/ml)
Cell Binding (FOB) [1]: 4660 fold over background
B1: 31901 (antibody, human IgG4 S228P, kappa, V domains shown)
VH: QVQLVQSGAEVKKPGSSVKVSCKASGGTFSSLPISWVRQAPGQGLEWMGGIGFGTANYAQKFQGRVTITADESTSTAYMELSSLRSEDTAVYYCARGGAKYAGRYGMDVWGQGTTVTVSS
VL: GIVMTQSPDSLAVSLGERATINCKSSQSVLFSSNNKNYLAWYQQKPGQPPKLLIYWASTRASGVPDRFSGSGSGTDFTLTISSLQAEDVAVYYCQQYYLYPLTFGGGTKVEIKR

binding result (Chimera #10): no binding (tested: 15 ug/ml)
binding result (Chimera #2): no binding (tested: 15 ug/ml)
Cell Binding (FOB) [1]: 4940 fold over background
B2: 31905 (antibody, human IgG4 S228P, kappa, V domains shown)
VH: B1 VH with S30P, L32N, P33A, G103R, R104T
VL: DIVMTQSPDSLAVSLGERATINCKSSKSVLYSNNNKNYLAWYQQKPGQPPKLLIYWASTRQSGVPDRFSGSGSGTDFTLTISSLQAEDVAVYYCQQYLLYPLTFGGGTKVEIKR
